Consider one molecule from publication PMC8673607, “ENAP1 retrains seed germination via H3K9 acetylation mediated positive feedback regulation of ABI5” (PLoS Genetics, 2021).

In the test the target is T1, His-ABI5 (Arabidopsis, UniProt Q9SJN0 1-442).
T1 construct: ABI5, Arabidopsis, AT2G36270; CDS ligated to pET28a; source: E. coli, purified (Ni-NTA agarose)
T1 sequence (looked up): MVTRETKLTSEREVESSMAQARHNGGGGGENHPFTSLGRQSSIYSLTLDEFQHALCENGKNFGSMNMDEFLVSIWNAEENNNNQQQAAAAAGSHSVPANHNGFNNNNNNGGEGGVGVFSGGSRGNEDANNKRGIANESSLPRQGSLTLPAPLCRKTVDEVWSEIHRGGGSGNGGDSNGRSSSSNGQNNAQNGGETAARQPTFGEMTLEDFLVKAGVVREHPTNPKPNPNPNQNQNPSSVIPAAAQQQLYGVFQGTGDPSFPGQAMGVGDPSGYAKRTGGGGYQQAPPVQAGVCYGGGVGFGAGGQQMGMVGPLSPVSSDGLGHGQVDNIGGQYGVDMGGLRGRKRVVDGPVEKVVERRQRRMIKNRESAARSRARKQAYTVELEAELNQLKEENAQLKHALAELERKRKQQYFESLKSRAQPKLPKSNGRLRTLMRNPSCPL
The test can be described thus: pull-down; His-ABI5 purified with Ni-NTA agarose incubated with dialyzed MBP fused proteins 1h at 4°C; column buffer 20 mM Tris-HCl pH 7.4, 0.2 M NaCl, 1 mM EDTA; blots with anti-His and anti-MBP. As to conditions: both partners purified.

B1: MBP-ENAP1 (natural protein, Arabidopsis, UniProt Q8VZI9 1-249, looked up)
chain: METTPETQSKTHRLPAGREDWWSEDATATLIEAWGDRYVNLNRGNLRQNDWKEVADAVNSSHGNGRPKTDVQCKNRIDTLKKKYKTEKAKPLSNWCFFDRLDFLIGPVMKKSSGAVVKSALMNPNLNPTGSKSTGSSLDDDDDDDDDDEEDDDDAGDWGFVVRKHRKVEDVDSSEGSAFRELARSILKLGEAFERIEGKKQQMMIELEKQRMEVAKELELQRMNMLMEMQLELEKSKLGKRRAASGKKL
notes: ENAP1, Arabidopsis, At3G11100; CDS ligated to pVP13 (Gateway vector, His tag removed); source: E. coli, purified (amylose resin, eluted with maltose, dialyzed)
B1: the binding result was “binds”.
